Test results from publication PMC8534003 (2021).
Where no end group is shown, it is not given here. The star is where a group is joined. Biotin = O=C1N[C@H]2[C@H](CS[C@H]2CCCCC(=O)*)N1

Target: human recombinant FGF-2 (human, UniProt P09038 143-288)
Sequence (P09038 143-288): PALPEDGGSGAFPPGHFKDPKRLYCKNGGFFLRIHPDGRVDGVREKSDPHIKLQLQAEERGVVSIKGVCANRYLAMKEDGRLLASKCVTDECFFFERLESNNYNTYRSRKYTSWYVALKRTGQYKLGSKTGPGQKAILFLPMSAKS

koff: 0.00207 s⁻¹
Binder: Biotin-KKKQKNGKKHQKKKVLKVRKSQRSRQKKTT [biotinylated CXCL9(74-103)]
